Measured values as given in patent publication US20230110958A1 (Regeneron, published 2023).

Columns and labels:
Assay in all cases: cell-based or functional assay
[1] = molecular target: human IL27 receptor (IL27Ra and gp130) on NCI-H929/GAS-Luc cells (human) (UniProt Q6UWB1)
[2] = molecular target: T1, murine IL27 receptor (IL27Ra and gp130) on mouse cells (MC9/STAT3-Luc reporter cells; splenic CD4+ T cells) (mouse, UniProt O70394 25-623; Q00560 23-917)
T1 sequence (looked up) 1: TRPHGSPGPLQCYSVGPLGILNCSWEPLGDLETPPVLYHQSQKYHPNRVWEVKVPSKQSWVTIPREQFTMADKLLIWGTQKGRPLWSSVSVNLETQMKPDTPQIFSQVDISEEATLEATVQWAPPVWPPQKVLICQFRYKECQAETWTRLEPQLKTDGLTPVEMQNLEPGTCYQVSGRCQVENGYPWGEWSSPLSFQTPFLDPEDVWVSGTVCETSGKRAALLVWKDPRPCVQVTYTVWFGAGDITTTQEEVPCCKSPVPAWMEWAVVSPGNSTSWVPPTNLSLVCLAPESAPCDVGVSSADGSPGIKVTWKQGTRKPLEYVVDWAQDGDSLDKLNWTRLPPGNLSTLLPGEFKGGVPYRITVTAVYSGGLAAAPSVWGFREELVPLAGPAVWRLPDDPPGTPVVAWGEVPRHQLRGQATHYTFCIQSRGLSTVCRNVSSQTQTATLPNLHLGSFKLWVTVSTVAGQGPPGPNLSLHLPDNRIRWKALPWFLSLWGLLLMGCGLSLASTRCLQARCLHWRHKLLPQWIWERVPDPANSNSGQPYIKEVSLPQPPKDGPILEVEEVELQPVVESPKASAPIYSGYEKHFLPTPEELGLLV
T1 sequence (looked up) 2: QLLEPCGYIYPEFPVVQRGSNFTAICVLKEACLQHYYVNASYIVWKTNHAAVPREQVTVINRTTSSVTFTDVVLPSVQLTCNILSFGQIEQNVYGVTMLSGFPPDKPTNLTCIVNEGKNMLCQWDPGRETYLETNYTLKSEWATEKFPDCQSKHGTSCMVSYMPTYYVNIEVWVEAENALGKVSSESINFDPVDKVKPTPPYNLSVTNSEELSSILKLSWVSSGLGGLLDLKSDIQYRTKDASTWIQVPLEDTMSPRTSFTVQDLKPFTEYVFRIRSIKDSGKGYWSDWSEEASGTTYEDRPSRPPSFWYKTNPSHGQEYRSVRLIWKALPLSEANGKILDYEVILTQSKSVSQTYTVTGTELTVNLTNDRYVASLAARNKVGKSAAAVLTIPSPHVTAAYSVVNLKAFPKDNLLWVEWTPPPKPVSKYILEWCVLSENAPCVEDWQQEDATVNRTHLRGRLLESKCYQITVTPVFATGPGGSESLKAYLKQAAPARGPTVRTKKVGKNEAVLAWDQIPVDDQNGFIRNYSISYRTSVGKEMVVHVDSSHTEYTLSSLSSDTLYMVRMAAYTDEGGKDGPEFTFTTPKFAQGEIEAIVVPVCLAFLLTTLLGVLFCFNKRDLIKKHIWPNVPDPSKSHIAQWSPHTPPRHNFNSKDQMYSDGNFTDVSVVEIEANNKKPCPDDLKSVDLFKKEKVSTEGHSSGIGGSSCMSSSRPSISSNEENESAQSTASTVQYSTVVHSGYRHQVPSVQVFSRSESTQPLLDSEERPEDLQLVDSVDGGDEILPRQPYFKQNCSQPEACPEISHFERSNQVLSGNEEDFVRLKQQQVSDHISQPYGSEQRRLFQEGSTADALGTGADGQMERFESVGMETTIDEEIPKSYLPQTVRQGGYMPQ

[3] = molecular target: T2, murine IL27 receptor (IL27Ra and gp130) on mouse cells (MC9/STAT3-Luc reporter cells; splenic CD4+ T cells) (mouse) (UniProt O70394)
T2 sequence (looked up) 1: T1 sequence (looked up) 1
T2 sequence (looked up) 2: T1 sequence (looked up) 2

human IL27 receptor (IL27Ra and gp130) on NCI-H929/GAS-Luc cells (human), sequence (Q6UWB1 33-636, chain 1 of 2): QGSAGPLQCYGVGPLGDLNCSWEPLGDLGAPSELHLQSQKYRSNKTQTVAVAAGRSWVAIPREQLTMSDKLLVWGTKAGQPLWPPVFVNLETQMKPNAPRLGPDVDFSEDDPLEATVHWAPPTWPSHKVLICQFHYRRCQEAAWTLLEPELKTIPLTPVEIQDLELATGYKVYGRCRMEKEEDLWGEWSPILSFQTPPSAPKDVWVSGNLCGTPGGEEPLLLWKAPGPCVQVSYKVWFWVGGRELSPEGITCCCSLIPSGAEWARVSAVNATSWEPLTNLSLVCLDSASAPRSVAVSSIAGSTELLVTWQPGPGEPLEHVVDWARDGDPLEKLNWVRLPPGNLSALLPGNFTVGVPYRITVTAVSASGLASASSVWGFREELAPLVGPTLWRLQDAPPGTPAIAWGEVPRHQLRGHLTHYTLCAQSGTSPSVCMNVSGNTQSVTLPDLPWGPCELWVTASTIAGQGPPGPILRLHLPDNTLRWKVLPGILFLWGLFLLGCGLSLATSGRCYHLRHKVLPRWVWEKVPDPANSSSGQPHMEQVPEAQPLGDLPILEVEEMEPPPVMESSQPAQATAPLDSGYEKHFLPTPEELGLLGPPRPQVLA
human IL27 receptor (IL27Ra and gp130) on NCI-H929/GAS-Luc cells (human), sequence (chain, as listed by the source, chain 2 of 2): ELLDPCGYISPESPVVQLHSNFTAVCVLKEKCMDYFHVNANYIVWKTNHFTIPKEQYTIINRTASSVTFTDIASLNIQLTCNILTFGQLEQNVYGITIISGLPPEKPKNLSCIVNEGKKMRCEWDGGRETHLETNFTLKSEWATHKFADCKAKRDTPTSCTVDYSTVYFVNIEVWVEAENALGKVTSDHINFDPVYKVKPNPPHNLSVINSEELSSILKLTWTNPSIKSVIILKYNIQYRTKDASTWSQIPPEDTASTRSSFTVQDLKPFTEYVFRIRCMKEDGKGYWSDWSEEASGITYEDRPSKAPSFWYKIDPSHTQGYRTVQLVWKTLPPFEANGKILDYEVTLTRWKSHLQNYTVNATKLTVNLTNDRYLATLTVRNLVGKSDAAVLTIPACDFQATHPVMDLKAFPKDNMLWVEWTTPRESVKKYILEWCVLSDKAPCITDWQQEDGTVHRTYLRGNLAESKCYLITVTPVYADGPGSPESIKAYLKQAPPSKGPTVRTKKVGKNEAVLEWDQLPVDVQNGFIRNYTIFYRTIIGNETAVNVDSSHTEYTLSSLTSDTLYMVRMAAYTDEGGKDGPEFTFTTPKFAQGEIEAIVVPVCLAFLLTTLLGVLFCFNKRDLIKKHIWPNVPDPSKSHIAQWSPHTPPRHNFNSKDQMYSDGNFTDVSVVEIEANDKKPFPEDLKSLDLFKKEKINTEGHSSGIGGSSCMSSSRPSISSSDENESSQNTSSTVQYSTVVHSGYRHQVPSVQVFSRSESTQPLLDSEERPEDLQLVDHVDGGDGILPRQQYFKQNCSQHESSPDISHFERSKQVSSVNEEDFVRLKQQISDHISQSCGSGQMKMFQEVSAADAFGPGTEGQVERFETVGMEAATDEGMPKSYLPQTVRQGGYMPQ

## human EBI3-p28-Fc (bivalent), configuration IL27M1 (Fc fusion)
[1]
  EC50 (M), GAS luciferase, NCI-H929/GAS-Luc cells: 5.35e-09 M
  FOLD INDUCTION, GAS luciferase, NCI-H929/GAS-Luc cells: 15.2 fold

## human hEBI3×hp28-Fc (monovalent) (Fc fusion)
[1]
  EC50 (M), GAS luciferase, NCI-H929/GAS-Luc cells: 1.27e-10 M
  FOLD INDUCTION, GAS luciferase, NCI-H929/GAS-Luc cells: 14.3 fold

B1: IL27M2, Mouse p28-(GGGGS)3-Fc (Knob) with Mouse EBI3-(GGGGS)3-Fc (Hole/star) (Fc fusion)
chain 1: FPTDPLSLQELRREFTVSLYLARKLLSEVQGYVHSFAESRLPGVNLDLLPLGYHLPNVSLTFQAWHHLSDSERLCFLATTLRPFPAMLGGLGTQGTWTSSEREQLWAMRLDLRDLHRHLRFQVLAAGFKCSKEEEDKEEEEEEEEEEKKLPLGALGGPNQVSSQVSWPQLLYTYQLLHSLELVLSRAVRDLLLLSLPRRPGSAWDSGGGGSGGGGSGGGGSESKYGPPCPPCPAPPVAGPSVFLFPPKPKDTLMISRTPEVTCVVVDVSQEDPEVQFNWYVDGVEVHNAKTKPREEQFNSTYRVVSVLTVLHQDWLNGKEYKCKVSNKGLPSSIEKTISKAKGQPREPQVYTLPPSQEEMTKNQVSLWCLVKGFYPSDIAVEWESNGQPENNYKTTPPVLDSDGSFFLYSRLTVDKSRWQEGNVFSCSVMHEALHNHYTQKSLSLSLGK
chain 2: YTETALVALSQPRVQCHASRYPVAVDCSWTPLQAPNSTRSTSFIATYRLGVATQQQSQPCLQRSPQASRCTIPDVHLFSTVPYMLNVTAVHPGGASSSLLAFVAERIIKPDPPEGVRLRTAGQRLQVLWHPPASWPFPDIFSLKYRLRYRRRGASHFRQVGPIEATTFTLRNSKPHAKYCIQVSAQDLTDYGKPSDWSLPGQVESAPHKPGGGGSGGGGSGGGGSESKYGPPCPPCPAPPVAGPSVFLFPPKPKDTLMISRTPEVTCVVVDVSQEDPEVQFNWYVDGVEVHNAKTKPREEQFNSTYRVVSVLTVLHQDWLNGKEYKCKVSNKGLPSSIEKTISKAKGQPREPQVYTLPPSQEEMTKNQVSLSCAVKGFYPSDIAVEWESNGQPENNYKTTPPVLDSDGSFFLVSRLTVDKSRWQEGNVFSCSVMHEALHNRFTQKSLSLSPGK
[2]
  EC50, luciferase activity, MC9/STAT3-Luc reporter cells: ~3.2 pM
  EC50, phosphorylation of STAT1 in CD4+ T-cells: ~0.0224 µg/mL

B2: Recombinant murine IL27 (R&D Systems cat# 2700-ML-010/CF), Mouse EBI3-(GGGS)4-Mouse p28-6-His tag (ligand)
chain: YTETALVALSQPRVQCHASRYPVAVDCSWTPLQAPNSTRSTSFIATYRLGVATQQQSQPCLQRSPQASRCTIPDVHLFSTVPYMLNVTAVHPGGASSSLLAFVAERIIKPDPPEGVRLRTAGQRLQVLWHPPASWPFPDIFSLKYRLRYRRRGASHFRQVGPIEATTFTLRNSKPHAKYCIQVSAQDLTDYGKPSDWSLPGQVESAPHKPGGGSGGGSGGGSGGGSFPTDPLSLQELRREFTVSLYLARKLLSEVQGYVHSFAESRLPGVNLDLLPLGYHLPNVSLTFQAWHHLSDSERLCFLATTLRPFPAMLGGLGTQGTWTSSEREQLWAMRLDLRDLHRHLRFQVLAAGFKCSKEEEDKEEEEEEEEEEKKLPLGALGGPNQVSSQVSWPQLLYTYQLLHSLELVLSRAVRDLLLLSLPRRPGSAWDSHHHHHH
[3]
  EC50 (M), STAT3 luciferase, MC9/STAT3-Luc cells: 3.22e-12 M
  EC50 (M), STAT3 luciferase, MC9 cells: 4.62e-12 M
  EC50, luciferase activity, MC9/STAT3-Luc reporter cells: 6.3 pM
  EC50, phosphorylation of STAT1 in CD4+ T-cells: 0.0244 µg/mL
  FOLD INDUCTION, STAT3 luciferase, MC9/STAT3-Luc cells: 5.25 fold
  FOLD INDUCTION, STAT3 luciferase, MC9 cells: 2.86 fold
